From patent US20260166145A1 (Memorial Sloan Kettering, published 2026) come the findings set out here.

The target in experiment [1] is T1, Human CD33-FC protein (R&D Systems) (human, UniProt P20138 18-259).
T1 construct: Bought reagent; also called purified CD33-FC; not shown: Fc part of the bought fusion; it is captured by anti-hIgG Fc biosensors
The experiment is described as follows: BLI (Octet RED96e) on captured human CD33-FC; reference is HuM195 scFv.

Experiment [2] concerns the target T1, Human CD33-FC protein (R&D Systems). Kind of experiment: BLI (Octet RED96e): human CD33-FC captured on anti-hIgG Fc Capture biosensors, antibody in solution; full-length bivalent HuM195 IgG.
Text: (§1) Equilibrium dissociation constant (Kd) measurement with bio-layer interferometry (BLI) biosensor. Human CD33-FC protein (R&D Systems, Minneapolis, MN) was captured on Anti-hIgG Fc Capture (AHC) Biosensors (ForteBio, Fremont, CA) overnight and blocked with FC. […] The binding graphs were fitted to a Kd constant model.
Experiment [3] shares this target. The experiment is described as follows: competitive ELISA on coated CD33-FC: pre-incubation with increasing HuM195 antibody, then HuM195 scFv at 100 nM, detected with anti-human Fab-HRP; signal normalised to 0 nM HuM195 falls from about 95-100 to about 10 on the axis named Blocked (%). On the technique in general: In an ELISA, binding on a coated surface is turned into a signal by an enzyme label.

Experiment [4] shares this target. The experiment is described as follows: BLI (Octet RED96e): human CD33-FC captured on anti-hIgG Fc Capture biosensors, scFv in solution; monovalent scFv, not IgG. For orientation: Biolayer interferometry detects binding as a change in optical thickness at a sensor tip.
Text: as §1

T1 sequence (P20138 18-259 limits assumed): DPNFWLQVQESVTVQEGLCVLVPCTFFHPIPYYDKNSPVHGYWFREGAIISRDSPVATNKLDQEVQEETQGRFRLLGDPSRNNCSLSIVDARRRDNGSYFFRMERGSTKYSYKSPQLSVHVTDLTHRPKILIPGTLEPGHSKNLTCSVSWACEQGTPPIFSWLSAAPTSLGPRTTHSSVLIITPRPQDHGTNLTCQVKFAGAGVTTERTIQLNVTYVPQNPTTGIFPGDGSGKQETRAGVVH

B1: Lintuzumab (HuM195) antibody (antibody, V domains shown)
VH: QVQLVQSGAEVKKPGSSVKVSCKASGYTFTDYNMHWVRQAPGQGLEWIGYIYPYNGGTGYNQKFKSKATITADESTNTAYMELSSLRSEDTAVYYCARGRPAMDYWGQGTLVTVSS
VL: DIQMTQSPSSLSASVGDRVTITCRASESVDNYGISFMNWFQQKPGGAPKLLIYAASNQGSGVPSRFSGSGSGTDFTLTISSLQPDDFATYYCQQSKEVPWTFGQGTKVEIK
notes: also called Hu195; Hu195 antibody
As to B1, the “fold difference of Kd against HuM195 scFv” value in experiment [1] was around 30 fold. In addition, the Kd in experiment [2] was 0.0627 nM. Also, in experiment [3], the IC50 amounted to 0.716 nM.

B2: HuM195 single-chain variable fragment (scFv), purified, with C-terminal His-tag (scFv)
scFv: QVQLVQSGAEVKKPGSSVKVSCKASGYTFTDYNMHWVRQAPGQGLEWIGYIYPYNGGTGYNQKFKSKATITADESTNTAYMELSSLRSEDTAVYYCARGRPAMDYWGQGTLVTVSSGGGGSGGGGSGGGGSDIQMTQSPSSLSASVGDRVTITCRASESVDNYGISFMNWFQQKPGGAPKLLIYAASNQGSGVPSRFSGSGSGTDFTLTISSLQPDDFATYYCQQSKEVPWTFGQGTKVEIKHHHHHHHH
notes: Expressed from the pSF-CMV-Puro-IL2 secretion plasmid in FreeStyle 293 cells and purified on a Histrap column; Monomeric by size exclusion chromatography; also called HuM195 scFv; Hu195 scFv
In experiment [4], B2 displayed a Kd of 1.81 nM.

For orientation: IC50 means the concentration needed to halve the response being measured.
